Results: publication PMC9971246, “The activation mechanism and antibody binding mode for orphan GPR20” (Cell Discovery, 2023)

Molecular target: T1, N-terminal BRIL-fused wild-type human GPR20 (human, UniProt Q99678)
T1 construct: human GPR20, wild type, UniProt Q99678; codon-optimized gene in pFastBac1; Construct order: haemagglutinin signal peptide, Flag tag, BRIL, GPR20, HRV 3C protease site, 10x His; No cleavage with HRV 3C is described; BRIL is written as a carrier under tags, not as a part; also called WT GPR20; ligand-free GPR20; source: Trichuplusia ni Hi5 insect cells (baculovirus), co-expressed with DNGαi and …
Experiment: cryo-EM structure; GPR20-Gi-Fab046 complex, pair of Fab046 and GPR20; TALON eluate (GPR20-Gi complex) mixed with purified Fab046 1:1.5 for 6 h, SEC in 20 mM HEPES pH 7.5, 100 mM NaCl, LMNG/GDN/CHS, 100 μM TCEP; 3.22 Å
Details: both partners purified

T1 sequence (Q99678 whole entry, the tested form may be a part): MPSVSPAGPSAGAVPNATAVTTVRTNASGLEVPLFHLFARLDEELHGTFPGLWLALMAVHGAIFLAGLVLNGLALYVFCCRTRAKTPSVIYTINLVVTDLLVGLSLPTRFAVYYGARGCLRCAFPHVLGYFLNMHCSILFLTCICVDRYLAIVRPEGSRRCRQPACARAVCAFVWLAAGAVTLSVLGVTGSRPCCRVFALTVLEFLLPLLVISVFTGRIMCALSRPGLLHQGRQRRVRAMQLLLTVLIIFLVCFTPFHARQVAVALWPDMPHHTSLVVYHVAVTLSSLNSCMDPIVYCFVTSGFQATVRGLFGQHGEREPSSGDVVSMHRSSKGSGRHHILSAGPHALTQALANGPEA

B1: Fab046, Fab fragment of the anti-GPR20 antibody Ab046 (Fab, V domains shown)
VH: QVQLQQSGAELAKPGSSVKISCKASGYTFTSYYISWIKQTTGQGLKYIGFINPGSGHTNYNEKFKGKATLTVDKSSSTAFMQLSSLTPDDSAIYYCARGAGGFLRIITKFDYWGQGVMVTVSS
VL: DTVLTQSPALAVSLGQRVTISCRASKSVSTYIHWYQQRSGQQPKLLIYSASNLESGVPSRFSGSGSGTDFTLTIDPVEPDDIANYYCQQINELPYTFGAGTKLELK
notes: modelled in the deposited structures PDB 8HS2 (VH + CH1) and PDB 8HSC (VH); modelled in the deposited structures PDB 8HS2 (intact light chain) and PDB 8HSC (VL); also called IgG046; source: Trichuplusia ni Hi5 insect cells (baculovirus, pFastBacDual), from the supernatant, purified (Ni-NTA, SEC)
  binding result: binds
